In patent publication US20060228300A1 one finds fold avidity against TF1 and percent shifted to a high molecular weight species data, which are given here for one substance.

In experiment [1] the target is fusion protein containing the A3B3 domain of CEA (UniProt P06731). The experiment can be described thus: competitive ELISA vs HRP-conjugated hMN-14 IgG (1 nM) on the A3B3 fusion protein.
Another experiment has as its target CEA (UniProt P06731). Description: SE-HPLC of 125I-TF2 mixed with a 20-fold molar excess of CEA.

Sequence of CEA (P06731 35-685 limits assumed): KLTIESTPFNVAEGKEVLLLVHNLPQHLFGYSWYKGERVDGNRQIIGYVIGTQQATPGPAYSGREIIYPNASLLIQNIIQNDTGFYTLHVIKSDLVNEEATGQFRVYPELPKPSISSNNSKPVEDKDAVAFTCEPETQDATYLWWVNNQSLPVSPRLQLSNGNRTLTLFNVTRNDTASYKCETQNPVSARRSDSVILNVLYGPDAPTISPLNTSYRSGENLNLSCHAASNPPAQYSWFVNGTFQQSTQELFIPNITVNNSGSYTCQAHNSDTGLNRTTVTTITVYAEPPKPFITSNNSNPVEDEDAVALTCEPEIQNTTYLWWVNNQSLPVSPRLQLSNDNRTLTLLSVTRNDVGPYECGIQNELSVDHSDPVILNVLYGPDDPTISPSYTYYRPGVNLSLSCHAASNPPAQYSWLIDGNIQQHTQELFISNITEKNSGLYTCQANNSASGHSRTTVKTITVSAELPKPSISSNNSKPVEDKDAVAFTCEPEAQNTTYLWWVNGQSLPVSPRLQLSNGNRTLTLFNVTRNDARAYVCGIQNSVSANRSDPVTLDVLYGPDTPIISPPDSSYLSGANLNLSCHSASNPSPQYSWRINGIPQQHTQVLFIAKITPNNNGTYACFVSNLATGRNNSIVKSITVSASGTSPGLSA
Sequence of fusion protein containing the A3B3 domain of CEA (P06731 499-676): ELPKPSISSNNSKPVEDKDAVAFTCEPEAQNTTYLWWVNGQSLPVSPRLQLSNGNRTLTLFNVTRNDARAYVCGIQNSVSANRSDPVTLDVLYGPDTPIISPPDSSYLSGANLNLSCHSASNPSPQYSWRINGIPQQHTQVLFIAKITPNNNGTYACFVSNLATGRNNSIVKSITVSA

As for TF2 (bispecific antibody), the fold avidity against TF1 in experiment [1] stood at 2 fold. Moreover, the percent shifted to a high molecular weight species in the experiment with CEA stood at 95%.
